T1: natural Bet v 1 (Betula verrucosa (Betula pendula), UniProt P15494 2-160)
T1 construct: Bought natural protein; also called nBet v 1
T1 chain: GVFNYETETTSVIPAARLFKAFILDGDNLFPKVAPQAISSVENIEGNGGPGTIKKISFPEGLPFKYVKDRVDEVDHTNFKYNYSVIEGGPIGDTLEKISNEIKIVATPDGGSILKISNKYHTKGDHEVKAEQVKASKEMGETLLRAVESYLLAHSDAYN

T2: Hazel (Cor A 1, MyBiosource, Cat# MBS5304600) (Hazel, UniProt Q08407 2-160, limits assumed)
T2 construct: Bought reagent
T2 sequence (looked up): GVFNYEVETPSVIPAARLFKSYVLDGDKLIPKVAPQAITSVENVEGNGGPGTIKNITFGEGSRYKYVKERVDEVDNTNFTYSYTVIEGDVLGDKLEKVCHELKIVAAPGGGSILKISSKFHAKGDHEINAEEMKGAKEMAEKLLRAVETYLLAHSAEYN


Legend:
natural Bet v 1 [1] = target: T1, natural Bet v 1; test: SPR Biacore 4000, mAb captured on anti-human Fc, 25C;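 note: purified anti-Bet v 1 mAbs probed with natural Bet v 1 in HBS-ET buffer (HEPES, NaCl, EDTA, Tween-20) at pH 7.4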
Method: (§1) Equilibrium dissociation constants (KD) for natural Bet v 1 binding to purified anti-Bet v 1 monoclonal antibodies were determined using a real-time surface plasmon resonance biosensor (SPR-Biacore) on a Biacore 4000 instrument. All binding studies were performed in 10 mM HEPES, 150 mM NaCl, 3 mM EDTA, and 0.05% v/v surfactant Tween-20, pH 7.4 (HBS-ET) running buffer at 25° C. and 37° C. […] Association (kₐ) and dissociation (kd) rate constants were determined by fitting the real-time binding sensorgrams to a 1:1 binding model with mass transport limitation using Scrubber 2.0c curve-fitting software. Binding dissociation equilibrium constants (KD) and dissociative half-lives (t½) were calculated from the kinetic rate constants as:

natural Bet v 1 [2] = target: T1, natural Bet v 1; test: SPR Biacore 4000, mAb captured on anti-human Fc, 37C;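 note: kinetic rate constants from SPR sensorgrams fitted to a 1:1 model with mass transport limitation, HBS-ET buffer pH 7.4, KD and t½ derived from the rate constants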
Method: as §1

[3] = target: T2, Hazel (Cor A 1, MyBiosource, Cat# …); test: SPR Biacore 4000, mAb captured by anti-human Fc, 25 C;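 note: allergen analyte binding to captured, purified anti-Bet v 1 monoclonal antibodies, SPR in HEPES-buffered saline running buffer with EDTA and Tween-20 at pH 7.4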
Method: Equilibrium dissociation constants (KD) for different related allergens binding to purified anti-Bet v 1 monoclonal antibodies were determined using a real-time surface plasmon resonance biosensor (SPR-Biacore) on a Biacore 4000 instrument. All binding studies were performed in 10 mM HEPES, 150 mM NaCl, 3 mM EDTA, and 0.05% v/v surfactant Tween-20, pH 7.4 (HBS-ET) running buffer at 25° C. […] Association (kₐ) and dissociation (kd) rate constants were determined by fitting the real-time binding sensorgrams to a 1:1 binding model with mass transport limitation using Scrubber 2.0c curve-fitting software. Binding dissociation equilibrium constants (KD) and dissociative half-lives (t½) were calculated from the kinetic rate constants as:

Binder | 100 nM natural Bet v 1 Bound (RU) (natural Bet v 1 [1]) | Kd (natural Bet v 1 [1]) [nM] | koff (natural Bet v 1 [1]) [s⁻¹] | kon (natural Bet v 1 [1]) [M⁻¹ s⁻¹] | t½ (natural Bet v 1 [1]) [min] | 100 nM natural Bet v 1 Bound (RU) (natural Bet v 1 [2]) | Kd (natural Bet v 1 [2]) [nM] | koff (natural Bet v 1 [2]) [s⁻¹] | kon (natural Bet v 1 [2]) [M⁻¹ s⁻¹] | t½ (natural Bet v 1 [2]) [min] | 100 nM Analyte Bound (RU) [3] [RU] | binding result [3]
H4H17027P (antibody, human IgG4, V domains shown) VH: EVQLVESGGGLVQPGGSLRLSCAASGFTFRNYAMHWVRQAPGEGLEWVAAIYRNSDSIDYADSVKGRFTISRDNAKNSLYLQMNSLKTEDTALYYCAKDEGFLEYFDSWGQGTLVTVSS VL: EIVLTQSPGTLSLSPGERASLSCRASQSVSSSFLAWYQQKPGQAPRLLIYGVSSRFIGIPDRFSGGGSGTDFTLTITRLEPEDFAVYYCQQYGRSPWTFGQGTKVEIK | 48 | 4.32 | 0.00027 | 62400 | 43 | 67 | 9.48 | 0.00093 | 98100 | 12 |  | 
H4H17028P (antibody, human IgG4, V domains shown) VH: QVQLVESGGGVVQPGRSLRLSCAASGFTFSRYAIHWVRQAPGKGLEWVAVISYDGDDKYYGDSVKGRFTISRDNSKTMVYLHMNSLRTEDTAVYYCAKDGYSLYGKDYFDYWGQGTLVTVSS VL: EIVLTQSPGTLPLSPGERATLSCRASQSITNSYLAWYQQKPDQAPRLLIYGASSRATGIPDRFSGSESGTDFTLTISRLEPEDFAVYYCQQYVRSPWTFGQGTKVEIK | 63 | 3.79 | 0.00107 | 281000 | 11 | 71 | 7.77 | 0.0029 | 373000 | 3.9 |  | 
H4H17033P (antibody, human IgG4, V domains shown) VH: QVQLVQSGAEVKKPGASVKVSCKASGYTFAAHYMHWVRQAPGQGLEWMGWINTYTGGTNYGQKFQGRVTMTRDTSITTAYMELSRLRSDDTAVYYCARDRRNWNFVFEYWGQGTLVTVSS VL: DIQMTQSPSSLSASVGDRVTISCRASQNIKNYLNWYQQKPGKAPKLLIYEASNLQSGAPSRFSGSGSGTDFTLTISSLEPEDFATYYCQQSFSIPWTFGQGTKVEIK | 61 | 1.19 | 0.000469 | 394000 | 25 | 74 | 1.9 | 0.00119 | 627000 | 10 |  | 
H4H17045P2 (antibody, human IgG4, V domains shown) VH: EVQLVESGGGLVQPGVSLRLSCVASGFTFSNYDITWIRQIPGKGLEWVSRISGSGGSTYFADSVKGRFIISRDNSKNTVYMQMNSLRAEDSAVYYCARRDSVLFSMNSWLDPWGQGTLVTVSS VL: not shown | 69 | 1.22 | 0.000149 | 122000 | 78 | 90 | 1.86 | 0.000441 | 237000 | 26 |  | 
H4H17067P2 (antibody, human IgG4, V domains shown) VH: EVQLVQSGAEVKKPGESLKISCSGSGYRFTNYWIAWVRQMPGKGLEWMGLIHPDDSDIRYSPSFQGQVTFSVDKSINTAYLQWSSLKASDTAMYYCTRQDGILWSHNAWFDPWGQGTLVTVSS VL: not shown | 58 | 3.56 | 0.000402 | 113000 | 29 | 80 | 5.48 | 0.00147 | 268000 | 7.9 |  | 
H4H16943P (antibody, human IgG4, V domains shown, Fully human antibody with human IgG4 Fc (H4H prefix)) VH: EVQLVESGGGLVQPGGSLRLSCTASGFMSSMYWMSWVRQAPGKGLEWVSNIKQDGTEKNYVESVKGRFTISRDNAKNSLYLQINSLRGEDTAVYYCARDLYSSSSGYYYYGLDVWGQGTTVTVSS VL: DIVMTQSPLSLPVTPGEPASISCRSSQSLLHSNKYNYLDWYLQKPGQSPQLLIYLSSNRASGVPDRFSGSGSGTEFTLKISRVEAEDVGIYYCMQALHTPLTFGGGTKVEIK |  |  |  |  |  |  |  |  |  |  | 0 | no binding (tested: 100 nM)
H4H16946P (antibody, human IgG4, V domains shown, Fully human antibody with human IgG4 Fc (H4H prefix)) VH: EVQLVESGGGLVQPGGSLRLSCVASGFTFSNYDMNWVRQAPGEGLEWISYISYSDHNIYYIDSVKGRFTISRDNAKNSLYLQMNSLRAEDTAIYYCAREALASSSFDYWGQGTLVTVSS VL: EIVMTQSPATLSVSPGERVTLSCRASQSVSGNLAWYQQKPGQAPRLLIYSASTGATGVPARFSGSGSGTEFTLTISSLQSEDFALYYCQQYNKWPRTIGQGTKVEIK |  |  |  |  |  |  |  |  |  |  | -1 | 
H4H16950P (antibody, human IgG4, V domains shown, Fully human antibody with human IgG4 Fc (H4H prefix)) VH: QVQLVQSGAEVKKPGASVKVSCKTSGYTFTNYGITWVRQAPGQGLEWMGWISAYNGNTNYAQNVQGRVTMTTDTSTSTAYMEVRSLRSDDTAVYYCARRSSMLHFQHWGQGTLVTVSS VL: DIVMTQSPDSLAVSLGERATINCKSSQHVLYDSSNENYLAWFQQKPGQPPKLLIYWASTRESGVPDRFSGSGSGTDFTLTISSLQAEDVAVYYCQQYSSAPYTFGQGTKLEIK |  |  |  |  |  |  |  |  |  |  | 0 | no binding (tested: 100 nM)
H4H16960P (antibody, human IgG4, V domains shown, Fully human antibody with human IgG4 Fc (H4H prefix)) VH: QLQLQESGPGLVRPSETLSLTCTVSGGSISSSNYWWGWIRQPPGKGLEWIGSIYYSGITYYNPSLKSRVTISADTSKDQFSLKLRSVTAADTAVYYCAKLEWLRLDFWGQGTTVTVSS VL: DIQMTQSPSSVSASVGDRVTITCRASQGISSWLVWYQQKPGKVPKLLIYAASSLQSGVPLRFSGSGSGTDFTLTISSLQPEDFATYYCQQAKSFPLTFGQGTRLEIK |  |  |  |  |  |  |  |  |  |  | 0 | no binding (tested: 100 nM)
H4H16967P (antibody, human IgG4, V domains shown, Fully human antibody with human IgG4 Fc (H4H prefix)) VH: QVQLVESGGGVVQPGRSLRLSCAASGFTFSSYGMHWFRQAPGKGLEWVGVIWSDGSDKKYADSVKGRFTISRDNSKNTLYLLMNSLRDDDTAVYHCAREGGFLYSSSSHFDYWGQGTLVTVSS VL: AIQMTQSPSSLSASVGDRVTITCRTSQGIRNDLGWYQQKPGKAPKLLIFAASSLQSGVPSRFSGSGSGTDFTLTISSLQPEDFAIYYCLQDYKYPFTFGGGTKVEIK |  |  |  |  |  |  |  |  |  |  | 0 | no binding (tested: 100 nM)
H4H16971P (antibody, human IgG4, V domains shown, Fully human antibody with human IgG4 Fc (H4H prefix)) VH: QVQLVESGGGVVQPGRSLRLSCAASGFTFSSYGLHWVRQAPGKGLEWVAVISDDGSYKFYADSMKGRFTISRDNSKNTLYLQMNSLRAEDTAVYYCAKDRGRSGWYYFDYWGQGTLVTVSS VL: not shown |  |  |  |  |  |  |  |  |  |  | 0 | no binding (tested: 100 nM)
H4H16979P (antibody, human IgG4, V domains shown, Fully human antibody with human IgG4 Fc (H4H prefix)) VH: QVQLVQSGAEVKKPGASVKVSCKASGYTFIAYYLHWVRQAPGQGLEWMGLLNPYTGGSYYTQKFQGRVTMTRDTSIDTAYMELNSLRSDDTAIYYCARDKRSYYIPYAFEIWGQGTMVTVSS VL: not shown |  |  |  |  |  |  |  |  |  |  | 0 | no binding (tested: 100 nM)
H4H16987P (antibody, human IgG4 S228P, kappa, V domains shown, human IgG4 Fc; also called MAB4) VH: EVQLVESGGGLVQPGGSLRLSCAASGFTVSSNSMSWVRQAPGEGLEWVSVIFSGGITYYSDSVKGRFTISRHNSKNTLYLQMNSLRTEDTAVYYCARHSNWNFDAFDIWGQGTMVTVSS VL: DIQMTQSPSSLSASVGDRVTITCRASQSFDTYLNWYQQKPGKAPNLLIYATSSLQSGVPSRFSGSGSGTDFTLTISSLQPEDFGTYYCQQSYSIPYTFGQGTKLEIKR |  |  |  |  |  |  |  |  |  |  | 0 | no binding (tested: 100 nM)

Reference: patent US20180346555A1 (Regeneron, published 2018)
